From PMC3507626, “The Crystal Structure of the Intact E. coli RelBE Toxin-Antitoxin Complex Provides the Structural Basis for Conditional Cooperativity” (Structure(London, England:1993), 2012)

Key:
[1] = target: T1, Escherichia coli RelE R81A (untagged, full-length toxin) (Escherichia coli, UniProt P0C077 1-95, R81A); test: crystal structure; RelB2E2 reconstituted from purified RelB and RelE R81A; crystals at 4°C, 1.6-2.0 M ammonium sulfate, 0.1 M Na acetate pH 4.6; space group P6(1)22; 2.8 Å; conditions: both partners purified
T1 construct: RelE toxin of the relBE locus, Escherichia coli, 95 residues, R81A active-site mutant; also called R81A active-site mutant
T1 sequence (looked up): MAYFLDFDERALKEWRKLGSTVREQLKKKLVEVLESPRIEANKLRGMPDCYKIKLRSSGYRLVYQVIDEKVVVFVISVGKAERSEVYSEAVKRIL

[2] = target: the molecule itself; test: not stated; isolated RelB and isolated RelE in solution; data not shown

B1: Escherichia coli RelB (untagged, intact antitoxin) (natural protein, UniProt P0C079 1-79, looked up)
chain: MGSINLRIDDELKARSYAALEKMGVTPSEALRLMLEYIADNERLPFKQTLLSDEDAELVEIVKERLRNPKPVRVTLDEL
notes: RelB antitoxin of the relBE locus, Escherichia coli, 79 residues (residues 2-79 of 79 seen in the structure); Untagged; Details of purification are in the Supplemental Experimental Procedures; source: E. coli, plasmid pSC2524HE encoding His-tagged RelE R81A and untagged RelB; purified by denaturation, ion exchange, gel filtration
In the case of B1, the binding result [1] is reported as “binds” and the “stoichiometry N” value [2] is reported as 4.
